Assay results: paper doi:10.1101/2022.04.25.489347 (bioRxiv, 2022)

Experiments:
AUC = target: the molecule itself; experiment: AUC
H2A/H2B dimer [1] = target: T1, H2A/H2B dimer (UniProt P06897 1-130; P02281 1-126); experiment: ITC
H3/H4 tetramer [2] = target: T2, H3/H4 tetramer (UniProt P84233 1-136; P62799 1-103); experiment: ITC
H2A/H2B dimer [3] = target: T1, H2A/H2B dimer; experiment: AUC
H3/H4 tetramer [4] = target: T2, H3/H4 tetramer; experiment: AUC
crystal structure = target: the molecule itself; experiment: crystal structure

Kd (H2A/H2B dimer [1]) [nM]	Kd (H3/H4 tetramer [2]) [nM]	stoichiometry N (H2A/H2B dimer [3])	stoichiometry N (H3/H4 tetramer [4])	Binder	stoichiometry N (AUC)	stoichiometry N (crystal structure)
60 ± 6	18 ± 2	1	1	AtFKBP43 (1-164) (domain or fragment, Arabidopsis thaliana, UniProt F4J9Q6 1-164, looked up) MAFWGVEVKPGKTFTLKNNEATGIRRLHLSQATLGHGTATNRSILQCNVGNKSPLLLCVLTPDKVDSCQLNLEFEETDEVIFSVIGPRSVHLTGYFLGRSTGFRPNDDESESFGEDIVDTDMEKGSSDDYDYSDSFINDDDPAVRGSHVSSTDDDEISIKEMTA	5	
460 ± 30	610 ± 40	1	1	AtFKBP43 (1-136) (domain or fragment, Arabidopsis thaliana, UniProt F4J9Q6 1-136, looked up) MAFWGVEVKPGKTFTLKNNEATGIRRLHLSQATLGHGTATNRSILQCNVGNKSPLLLCVLTPDKVDSCQLNLEFEETDEVIFSVIGPRSVHLTGYFLGRSTGFRPNDDESESFGEDIVDTDMEKGSSDDYDYSDSF	5	

More lines, now with the values behind:

Binder	Kd (H2A/H2B dimer [1]) [nM]	Kd (H3/H4 tetramer [2]) [nM]	stoichiometry N (H2A/H2B dimer [3])	stoichiometry N (H3/H4 tetramer [4])	stoichiometry N (AUC)	stoichiometry N (crystal structure)
AtFKBP43 NTD (1-96) (domain or fragment, Arabidopsis thaliana, UniProt F4J9Q6 1-96, looked up) MAFWGVEVKPGKTFTLKNNEATGIRRLHLSQATLGHGTATNRSILQCNVGNKSPLLLCVLTPDKVDSCQLNLEFEETDEVIFSVIGPRSVHLTGYF					5	
AtFKBP43 NTD (1-110) (domain or fragment, Arabidopsis thaliana, UniProt F4J9Q6 1-110, looked up) MAFWGVEVKPGKTFTLKNNEATGIRRLHLSQATLGHGTATNRSILQCNVGNKSPLLLCVLTPDKVDSCQLNLEFEETDEVIFSVIGPRSVHLTGYFLGRSTGFRPNDDES						5
